{
  "source": "patent US5618790A",
  "about": "“Protease mediated drug delivery system” (Queen's University at Kingston, priority 1994, dated 1997)",
  "key": {"[1]": {"test": "Solubility of the purified compound", "type": "physicochemical", "description": "The purified compound was a purple-red powder that was quite soluble in water in neutral pH, in isotonic saline for injection (U.S.P.), and in fresh heparinized human blood and plasma. Aqueous solutions were strongly fluorescent when exposed to 410 nm light."}, "[2]": {"test": "Fluorescence in heparinized whole blood and plasma", "type": "in vitro ADME", "conditions": "heparinized whole blood and plasma samples; spectrophotofluorometer", "experimental": "Aliquots of the porphyrin compound of Example 1 were added to heparinized whole blood and plasma samples which were then examined by spectrophotofluorometer."}, "[3]": {"test": "Toxicity after intraperitoneal injection into mice", "type": "in vivo", "conditions": "intraperitoneally, dosages up to 20 mg/kg body weight", "experimental": "The porphyrin compound of Example 1 was injected intraperitoneally into mice at dosages up to 20 mg/kg body weight."}, "[4]": {"system": "Clostridium perfringens", "conditions": "mouse, in vivo, 20 mg/kg"}},
  "note": "Starred links: 1 amine or outer side, 2 acyl side, 3 side chain; linkers in the order of their positions; H or OH if unused. Positions of bridges follow the written chain, without caps; N, C: chain ends. Residues, ends and D or L forms follow the SMILES beside them. Chains are numbered I, II in the order given. X1 = CCC1=C(C)c2cc3[nH]c(cc4nc(cc5[nH]c(cc1n2)c(C)c5CCC(=O)[*:1])C(CCC(=O)[*:2])=C4C)c(C)c3CC",
  "data": [
    {"smiles": "CCC1=C(C)c2cc3[nH]c(cc4nc(cc5[nH]c(cc1n2)c(C)c5CCC(=O)NCC(=O)N1CCC[C@H]1C(=O)N[C@@H](CC(C)C)C(=O)NCC(=O)N1CCC[C@H]1C(=O)N[C@@H](C)C(=O)N[C@@H](CCCCN)C(=O)N[C@@H](CCCCN)C(=O)N[C@@H](CCCCN)C(=O)N[C@@H](CCCCN)C(=O)O)C(CCC(=O)NCC(=O)N1CCC[C@H]1C(=O)N[C@@H](CC(C)C)C(=O)NCC(=O)N1CCC[C@H]1C(=O)N[C@@H](C)C(=O)N[C@@H](CCCCN)C(=O)N[C@@H](CCCCN)C(=O)N[C@@H](CCCCN)C(=O)N[C@@H](CCCCN)C(=O)O)=C4C)c(C)c3CC", "note": "[porphyrin compound of Example 1, mesoporphyrin IX (Gly--Pro--Leu--Gly--Pro--Ala--Lys--Lys--Lys--Lys)2] (I: GPLGPAKKKK-OH / II: GPLGPAKKKK-OH; linker I:N-II:N via X1)", "values": [
      {"measurement": "solubility", "setting": "[1]; fresh heparinized human blood and plasma", "value": "quite soluble"},
      {"measurement": "solubility", "setting": "[1]; isotonic saline for injection (U.S.P.)", "value": "quite soluble"},
      {"measurement": "solubility", "setting": "[1]; water in neutral pH", "value": "quite soluble"},
      {"measurement": "effect on fluorescence intensity (stability of the collagenase sensitive peptide)", "setting": "[2]", "value": "No effect on fluorescence intensity"},
      {"measurement": "toxic effects", "setting": "[3]", "value": "No toxic effects were observed"},
      {"measurement": "increase of porphyrin fluorescence relative to the background fluorescence (factor)", "setting": "[4]", "value": "three"}
    ]}
  ]
}
